Values belong to the binder of their own block, whether it stands above or below them. Where no end group is shown, it is not given here.
Target: NIK624-947 (C-terminal domain of NIK) (human) (UniProt Q99558)
Test: yeast two-hybrid, against cγc 289-369 as reference

Chain of NIK624-947 (C-terminal domain of NIK) (human) (Q99558 624-947 limits assumed): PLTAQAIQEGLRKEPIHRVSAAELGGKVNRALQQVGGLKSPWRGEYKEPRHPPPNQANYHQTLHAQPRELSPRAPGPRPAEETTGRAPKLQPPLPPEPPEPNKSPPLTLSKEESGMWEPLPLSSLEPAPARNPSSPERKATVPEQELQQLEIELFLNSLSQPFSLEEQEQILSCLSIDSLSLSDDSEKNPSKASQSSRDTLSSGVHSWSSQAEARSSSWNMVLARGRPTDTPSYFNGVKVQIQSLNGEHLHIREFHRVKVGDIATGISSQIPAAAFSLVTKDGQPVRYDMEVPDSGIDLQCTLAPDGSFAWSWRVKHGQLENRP

reduction in affinity: 50%
B1: cγc 289-357 (12 aa deleted from the membrane distal domain) (receptor, not shown: large carriers)
chain: RIPTLKNLEDLVTEYHGNFSAWSGVSKGLAESLQPDYSERLCLVSEIPPKGGALGEGPGASPCNQHSPY

reduction in affinity: 50%
B2: cγc 289-325 (44 aa deleted from the ICD) (receptor, not shown: large carriers)
chain: RIPTLKNLEDLVTEYHGNFSAWSGVSKGLAESLQPDY
modifications: also: fused to GAL4 DNA-binding domain (two-hybrid bait), letters not given here

Reference: US20050272633A1
